Reference: US11339434B2, “Methods for determining gene functions” (The Regents of the University of California, priority 2016, dated 2022)

Assay: methylation of 6-mercaptopurine by peptide barcoded TPMT, LC-ESI-MS
Format: biochemical
Conditions: 1 mM 6-mercaptopurine, 37° C., approximately 24 hours
Method: A polynucleotide encoding a peptide barcoded human thiopurine methyl transferase (TPMT) was incubated for 3 hours at 37° C. in the PURExpress® cell-free transcription/translation system (New England Biolabs, Inc. (Ipswich, Mass.)) according to the manufacturer's protocol in the presence (+protease) or the absence (−protease) of the WELQut-protease. […] After cell-free transcription/translation of peptide barcoded thiopurine methyl transferase (TPMT), 1 mM 6-mercaptopurine and phosphate buffered saline (0.1×) were added with (+cofactor) or without (−cofactor) 3.2 mM of the cofactor S-adenosyl-methionine (SAM). After incubation at 37° C., […] for approximately 24 hours (no shaking), methylation of 6-mercaptopurine and the presence of peptide barcode were determined by liquid chromatography-electrospray ionization-mass spectrometry (LC-ESI-MS).

B1: TPMT: peptide barcoded human thiopurine methyl transferase produced by cell-free transcription/translation (protein, UniProt P51580 1-245, looked up)
Thiopurine S-methyltransferase: MDGTRTSLDIEEYSDTEVQKNQVLTLEEWQDKWVNGKTAFHQEQGHQLLKKHLDTFLKGKSGLRVFFPLCGKAVEMKWFADRGHSVVGVEISELGIQEFFTEQNLSYSEEPITEIPGTKVFKSSSGNISLYCCSIFDLPRTNIGKFDMIWDRGALVAINPGDRKCYADTMFSLLGKKFQYLLCVLSYDPTKHPGPPFYVPHAEIERLFGKICNIRCLEKVDAFEERHKSWGIDCLFEKLYLLTEK
modifications: peptide barcode
notes: peptide barcoded human thiopurine methyl transferase produced by cell-free transcription/translation
For B1, the “methylated 6-mercaptopurine detected by mass spectrometry” value (“methylated 6-mercaptopurine detected” below) (absence of cofactor S-adenosyl-methionine, absence of WELQut-protease) was “no methylated 6-mercaptopurine nor peptide barcode were detected”, the “methylated 6-mercaptopurine detected” value (absence of cofactor S-adenosyl-methionine, presence of WELQut-protease) was “no methylated 6-mercaptopurine was detected” and the “methylated 6-mercaptopurine detected” value (presence of cofactor S-adenosyl-methionine (3.2 mM) and WELQut-protease) was “methylated 6-mercaptopurine and the peptide barcode were detected”. The “methylated 6-mercaptopurine detected” value (presence of cofactor S-adenosyl-methionine (3.2 mM), absence of WELQut-protease) was “methylated 6-mercaptopurine was detected”.
